Measured values from PMC5605520, “Ylehd, an epoxide hydrolase with promiscuous haloalkane dehalogenase activity from tropical marine yeast Yarrowia lipolytica is induced upon xenobiotic stress” (Scientific Reports, 2017).

Experiments:
[1] = target: Ylehd (epoxide hydrolase with promiscuous haloalkane dehalogenase activity from Yarrowia lipolytica NCIM 3589) (Yarrowia lipolytica NCIM 3589); assay: SEC; Superdex S200 10/300GL equilibrated with 50 mM sodium acetate buffer pH 4.5; mass from calibration with proteins of known molecular mass
[2] = target: Ylehd (epoxide hydrolase with promiscuous haloalkane dehalogenase activity from Yarrowia lipolytica NCIM 3589) (Yarrowia lipolytica NCIM 3589); assay: SEC; Superdex S200 10/300GL equilibrated with 50 mM Tris-sulphate buffer pH 8.0; mass from calibration with proteins of known molecular mass
[3] = target: T1, Ylehd (Yarrowia lipolytica, UniProt Q6C598); assay: spectrophotometric residual epoxide assay, […] nm; format: biochemical; details: epoxide hydrolase activity; 50 mM Tris-sulphate, pH 8.0, 30 °C
T1 construct: gene YALI0_E19899g; full-length ORF in pET28a, His-tagged, E. coli BL21AI; 352 amino acids; 43 kDa monomer; likely dimer at pH 8.0 (EH), tetramer at pH 4.5 (HLD)

Row | Molecule | stoichiometry N [1] | stoichiometry N [2] | Km [3] [µM]
1 | Ylehd (epoxide hydrolase with promiscuous haloalkane dehalogenase activity from Yarrowia lipolytica NCIM 3589) (enzyme) | 4 | 2 | 
2 | CCCCCCC1CO1 (stereo not drawn) [1,2-Epoxyoctane] |  |  | 500 ± 45
